Experiments:
[1] = test system: Clostridium bifermentants; experiment: Growth inhibition; assay type: cell-based
[2] = Stability of activity to enzymes; assay type: physicochemical
[3] = Polarity calculation from RP-HPLC elution; assay type: physicochemical; conditions: calculated from elution at 33.3% acetonitrile, RP-HPLC C18 (Snyder formula)
Experimental: The polarity was calculated from the percentage of acetonitrile at which the substance eluted according to the formula given by Snyder (Snyder, L. R., 1978, Chromatogr. Sci. 16:223-234).

[4] = test system: Micrococcus luteus ATCC 272; experiment: Sensitivity titer on a lawn of the tested strain (control strain); assay type: cell-based; conditions: Micrococcus luteus ATCC 272 (control); antibiotic resistance: None
Experimental: (§1) Trypticase Soy Agar (Difco Laboratories, Detroit, Mich.) plates enriched with 0.3% yeast extract were overlaid with 5 ml of melted TSAYE containing a standardized suspension (0.2 ml of an exponentially growing culture at an optical density of 0.1 at 600 nm) of Micrococcus luteus ATCC 272 (ATCC, Rockville, Md.). In order to assess the activity of mutacin samples, two-fold dilutions were prepared in 0.11% TFA (Sigma Chemical Co., St. Louis, Mo.) and 5 μl of each dilution deposited on top of the indicator plates. Mutacin activity was expressed in arbitrary units, which correspond to the reciprocal of the last dilution giving a clear inhibition zone against M. luteus after 24 h of incubation at 37° C. under aerobic conditions (Parrot et al., 1989, Can. J. Microbiol. 35:366-372).
(§2) The sensitivity of multi-drug resistant strains to mutacin B-Ny266 purified to homogeneity was assessed. In parallel the sensitivity of these strains to nisin was determined.

[5] = test system: Staphylococcus epidermidis 3176; experiment: Sensitivity titer of multi-drug resistant staphylococci clinical isolates; assay type: cell-based; conditions: resistant to AM-GM-K-CF-E-P-Cl
Experimental: as §1, §2

[6] = test system: Staphylococcus epidermidis 1656; experiment: as above; assay type: cell-based; conditions: resistant to AM-K-S-CF-E-P-Cl-TE
Experimental: as §1, §2

[7] = test system: Staphylococcus haemolyticus 2344; experiment: as above; assay type: cell-based; conditions: resistant to AM-K-S-CF-E-P-Cl-TE
Experimental: as §1, §2

Neisseria subflava = experiment: Growth inhibition; assay type: cell-based
Bacillus cereus = experiment: Growth inhibition; assay type: cell-based
[8] = test system: Flavobacterium capsulatum; experiment: Growth inhibition; assay type: cell-based; conditions: a Gram-negative strain
[9] = Heat stability of activity; assay type: physicochemical

Mutacin B-Ny266: type A lantibiotic produced by Streptococcus mutans B-Ny266; F-K-A-W-U-F-A-Abu-P-G-A-A-K-O-G-A-F-N-U-Y-A-SADC
growth inhibition [1]: inhibits the growth
activity after enzyme treatment ([2]; alpha-chymotrypsin): destroyed
resistance to enzymes ([2]; many enzymes): resistant
activity after enzyme treatment ([2]; papain): destroyed
activity after enzyme treatment ([2]; pronase E): destroyed
activity after enzyme treatment ([2]; proteinase K): destroyed
activity after enzyme treatment ([2]; trypsin): destroyed
polarity [3]: 8.067
titer (highest dilution producing an inhibitory zone on a lawn of the tested strain) [4]: 64
titer (highest dilution producing an inhibitory zone on a lawn of the tested strain) [5]: 16
titer (highest dilution producing an inhibitory zone on a lawn of the tested strain) [6]: 16
titer (highest dilution producing an inhibitory zone on a lawn of the tested strain) [7]: 16
growth inhibition (Neisseria subflava): inhibits the growth
growth inhibition (Bacillus cereus): inhibits the growth
growth inhibition [8]: inhibit
resistance to temperature ([9]; 100° C. for 30 min): resistant
activity after heat treatment ([9]; 121° C. for 30 min): destroyed

— patent publication US6699839B1, “Lantibiotic from Streptococcus mutans, method of production and use thereof” (Universite Laval, priority 1997, dated 2004)
